{
  "source": "paper PMC4083100",
  "origin": "cited, not measured here",
  "biological_target": "FcεRI (Homo sapiens) (UniProt P12319)",
  "sequence (P12319 26-257)": "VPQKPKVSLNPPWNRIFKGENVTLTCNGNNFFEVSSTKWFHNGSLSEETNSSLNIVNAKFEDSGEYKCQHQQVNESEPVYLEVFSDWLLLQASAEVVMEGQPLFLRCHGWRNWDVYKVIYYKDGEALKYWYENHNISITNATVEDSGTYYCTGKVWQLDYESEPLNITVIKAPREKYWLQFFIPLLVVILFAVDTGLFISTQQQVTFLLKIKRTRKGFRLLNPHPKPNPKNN",
  "data": [
    {"substance": "IgE (from UniProt P01854)", "values": [
      {"measurement": "Kd", "result": "< 1", "unit": "nM"}
    ]}
  ]
}
